What follows are binders tested against HGF (hepatocyte growth factor/scatter factor) (UniProt P14210;P14210 P14210:32-494,P14210:495-728) (assay: filter; HBSMC, 37C). Conditions: tags: R&D Systems.
Method: In binding reactions, RNA concentrations were kept as low as possible—between 1 and 20 pM—to ensure equilibrium in conditions of protein excess. Oligonucleotides were incubated for 15 minutes at 37° C. with varying amounts of the protein in 43 µl of the binding buffer. Thirty-two microliters of each binding mixture placed on pre-wet 0.45 µm nitrocellulose filters under suction. Each well was immediately washed with 0.5 ml binding buffer. The amount of radioactivity retained on the filters was quantitated by imaging. The radioactivity that bound to filters in the absence of protein was used for background correction. The percentage of input oligonucleotide retained on each filter spot was plotted against the corresponding log protein concentration. The nonlinear least square method was used to obtain the dissociation constant (K_d; reference Jellinek, Lynott et al. 1993, Proc. Natl. Acad. Sci. USA. 90:11227–31).

Chain of HGF (hepatocyte growth factor/scatter factor) (P14210 32-494, chain 1 of 2): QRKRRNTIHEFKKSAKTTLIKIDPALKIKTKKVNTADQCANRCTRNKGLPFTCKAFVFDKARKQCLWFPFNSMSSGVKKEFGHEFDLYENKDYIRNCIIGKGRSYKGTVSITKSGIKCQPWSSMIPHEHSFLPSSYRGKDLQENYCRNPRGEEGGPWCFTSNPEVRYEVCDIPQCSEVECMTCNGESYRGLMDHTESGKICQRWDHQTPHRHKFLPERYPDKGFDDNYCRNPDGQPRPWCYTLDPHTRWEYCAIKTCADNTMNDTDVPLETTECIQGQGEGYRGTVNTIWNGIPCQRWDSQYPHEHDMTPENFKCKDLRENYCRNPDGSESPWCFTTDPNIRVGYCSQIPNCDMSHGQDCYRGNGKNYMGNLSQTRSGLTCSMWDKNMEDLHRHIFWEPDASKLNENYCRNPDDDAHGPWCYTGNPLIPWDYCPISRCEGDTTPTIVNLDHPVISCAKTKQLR
Chain of HGF (hepatocyte growth factor/scatter factor) (P14210 495-728, chain 2 of 2): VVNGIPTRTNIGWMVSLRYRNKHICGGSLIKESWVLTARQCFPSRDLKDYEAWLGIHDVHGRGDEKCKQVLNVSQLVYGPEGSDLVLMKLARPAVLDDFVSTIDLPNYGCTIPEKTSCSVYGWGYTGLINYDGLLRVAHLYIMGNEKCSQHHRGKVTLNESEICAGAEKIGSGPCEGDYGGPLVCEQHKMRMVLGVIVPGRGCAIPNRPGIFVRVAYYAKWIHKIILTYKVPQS

Binder	Kd [nM]
11-215 (ssRNA, 2'-F pyrimidines) RNA: GGGAGGACGAUGCGGGUAGUGAGUUUUCAUUGUCUUGUCCCCGUGCAGACGACUCGCCCGA	0.091
8-155 (ssRNA, 2'-F pyrimidines) RNA: GGGAGGACGAUGCGGUGUGAACCUAUUUAUGCCAUCUCGAGUGCCCAGACGACUCGCCCGA	0.093
11-110 (ssRNA, 2'-F pyrimidines) RNA: GGGAGGACGAUGCGGUGAUUACCUAUUUAUGUCAUGCUCCUCCCCCAGACGACUCGCCCGA	0.086
8-112 (ssRNA, 2'-F pyrimidines) RNA: GGGAGGACGAUGCGGUCCCGAAUUUAAGUGCGUUUCCUCCGCGUCCAGACGACUCGCCCGA	0.13
8-123 (ssRNA, 2'-F pyrimidines) RNA: GGGAGGACGAUGCGGUCCCGAGUUUGAGGGCGUUUCUUCUUCGUCCAGACGACUCGCCCGA	0.21
8-154 (ssRNA, 2'-F pyrimidines) RNA: GGGAGGACGAUGCGGUCCCAAGAUUCAGGGCGUUUCUUCCUCGUCCAGACGACUCGCCCGA	0.12
11-104 (ssRNA, 2'-F pyrimidines) RNA: GGGAGGACGAUGCGGGUUUGAGUGAUGUCGUCUUGUCCCGCCUGCCAGACGACUCGCCCGA	0.091
8-17 (ssRNA, 2'-F pyrimidines) RNA: GGGAGGACGAUGCGGGCGGCUCGAUGUCGUCUUAUCCCUUUGCCCCAGACGACUCGCCCGA	0.095
8-158 (ssRNA, 2'-F pyrimidines) RNA: GGGAGGACGAUGCGGCCGGCUCGAUGUCGUCUUACCCCUUUGCCCCAGACGACUCGCCCGA	0.31
11-163 (ssRNA, 2'-F pyrimidines) RNA: GGGAGGACGAUGCGGGCUUGAGUCUUUGAUCGUCUUAUCCCUCGUCAGACGACUCGCCCGA	0.082
11-76 (ssRNA, 2'-F pyrimidines) RNA: GGGAGGACGAUGCGGUCAGCGGCGCGAGCCUGUUUAUGUCUGCUGCAGACGACUCGCCCGA	0.076
11-17 (ssRNA, 2'-F pyrimidines) RNA: GGGAGGACGAUGCGGGUUAGAGCGUGACAGUCGUCUUAUCCCGGGUCACAGACGACUCGCCCGA	0.13
8-103 (ssRNA, 2'-F pyrimidines) RNA: GGGAGGACGAUGCGGGCCGAAAAUUCGUCGACAUCUCCCUGUCUGCAGACGACUCGCCCGA	0.12
11-212 (ssRNA, 2'-F pyrimidines) RNA: GGGAGGACGAUGCGGGUUUGAGUUAAACAUCGGUUUUCUCCUGCAGACGACUCGCCCGA	0.075
8-118 (ssRNA, 2'-F pyrimidines) RNA: GGGAGGACGAUGCGGGGCGACUUUCCUCCAAUUCUCACCUCUGCACAGACGACUCGCCCGA	0.16
11-9 (ssRNA, 2'-F pyrimidines) RNA: GGGAGGACGAUGCGGCGUGAGCCUGUUUAUGACCUCGUCCAUGGCCAGACGACUCGCCCGA	0.074
11-158 (ssRNA, 2'-F pyrimidines) RNA: GGGAGGACGAUGCGGCGAUAGCCUAUUUAUGACCUCGUCCCCGUGCAGACGACUCGCCCGA	0.17
11-217 (ssRNA, 2'-F pyrimidines) RNA: GGGAGGACGAUGCGGCGUGAGCCUUCCAAUGACGUCGUCCUUGGCCAGACGACUCGCCCGA	0.071
11-221 (ssRNA, 2'-F pyrimidines) RNA: GGGAGGACGAUGCGGGCAGAGCGAAAAUCGUCUUGUCCCCGACGCCAGACGACUCGCCCGA	0.062
11-208 (ssRNA, 2'-F pyrimidines) RNA: GGGAGGACGAUGCGGGUUUGAGUGACGAUCGUCUUGUCCCAUGUGCAGACGACUCGCCCGA	0.06
11-8 (ssRNA, 2'-F pyrimidines) RNA: GGGAGGACGAUGCGGUCAGUAUGACUUUUAUAGCACGUUCGCCCCAGACGACUCGCCCGA	0.15
11-157 (ssRNA, 2'-F pyrimidines) RNA: GGGAGGACGAUGCGGUCAGAAUGACUUUCAUAGCACGCUUUCCCCAGACGACUCGCCCGA	0.26
8-119 (ssRNA, 2'-F pyrimidines) RNA: GGGAGGACGAUGCGGGCCAUUCGAUCGAUUCUCCGCCGGAUCGUGCAGACGACUCGCCCGA	0.11
11-59 (ssRNA, 2'-F pyrimidines) RNA: GGGAGGACGAUGCGGCGUGAGCCUGUAUAUGUCAUUGUUCUCCGGCAGACGACUCGCCCGA	0.11

Binder	Kd [nM]
11-165 (ssRNA, 2'-F pyrimidines) RNA: GGGAGGACGAUGCGGGUUGAUAGGAGUCAUCAUCGUCUUGUCCGCCAGACGACUCGCCCGA	0.073
8-113 (ssRNA, 2'-F pyrimidines) RNA: GGGAGGACGAUGCGGUGAAUUCCUCUGGCUGAAAAUGACUUGUGCCAGACGACUCGCCCGA	0.083
11-103 (ssRNA, 2'-F pyrimidines) RNA: GGGAGGACGAUGCGGUGAUUACCUAUUAUGUCUCGCCCUCUCCAGACGACUCGCCCGA	0.2
11-123 (ssRNA, 2'-F pyrimidines) RNA: GGGAGGACGAUGCGGGUGACUCAAAAUGGUGAUCCUCGUUUCGCCAGACGACUCGCCCGA	0.09
8-122 (ssRNA, 2'-F pyrimidines) RNA: GGGAGGACGAUGCGGCGGUGUGAACCUGUUUAUGUCCGCGUACCCCAGACGACUCGCCCGA	0.097
11-65 (ssRNA, 2'-F pyrimidines) RNA: GGGAGGACGAUGCGGUGAUAACCUGUUUAUGCCAUCGUGCUGGGCCAGACGACUCGCCCGA	0.11
8-101 (ssRNA, 2'-F pyrimidines) RNA: GGGAGGACGAUGCGGGUGACUCAAAAUGGUGAUCCUCGAUUUCCGCCAGACGACUCGCCCGA	0.095
11-153 (ssRNA, 2'-F pyrimidines) RNA: GGGAGGACGAUGCGGACAGGUAGUCUUCUAUAGCACUUCCUCCCCCAGACGACUCGCCCGA	0.19
11-223 (ssRNA, 2'-F pyrimidines) RNA: GGGAGGACGAUGCGGUCAGUAUGGCUUCUAUAGCUCGUUCCUCGGCAGACGACUCGCCCGA	0.12
8-126 (ssRNA, 2'-F pyrimidines) RNA: GGGAGGACGAUGCGGGUGACUCAAAAUGGUGAUCCUCGUUUCCGCCAGACGACUCGCCCGA	0.099
11-166 (ssRNA, 2'-F pyrimidines) RNA: GGGAGGACGAUGCGGGUUUGAGUUCUGACACGUCUUGUCCCAUGCCAGACGACUCGCCCGA	0.079
8-3 (ssRNA, 2'-F pyrimidines) RNA: GGGAGGACGAUGCGGAUCCCGCGACCAGGGCGUUUCUUCCUCGUCCCAGACGACUCGCCCGA	0.13
11-7 (ssRNA, 2'-F pyrimidines) RNA: GGGAGGACGAUGCGGGUGGAGUCAAAUCGUCUUGUCCCUUGUCCUCAGACGACUCGCCCGA	0.11
8-125 (ssRNA, 2'-F pyrimidines) RNA: GGGAGGACGAUGCGGUGUGAACCUGUUUAUGUCAUCUUUUGUCGUCAGACGACUCGCCCGA	0.075
11-151 (ssRNA, 2'-F pyrimidines) RNA: GGGAGGACGAUGCGGUGAGUCAUAGUGUUGAUCGUCGUAUCCCGUCAGACGACUCGCCCGA	0.17
8-174 (ssRNA, 2'-F pyrimidines) RNA: GGGAGGACGAUGCGGUCGAGCUUCUGAGUUAAACUGGGGCCUCCUCAGACGACUCGCCCGA	0.23
8-104 (ssRNA, 2'-F pyrimidines) RNA: GGGAGGACGAUGCGGGCGACUCAAUCUGAAUCGUCUUGUCCCGUGCAGACGACUCGCCCGA	0.05
8-165 (ssRNA, 2'-F pyrimidines) RNA: GGGAGGACGAUGCGGCGAGAGCCUAUUUAUGUCAUCAUGCCUGUGCAGACGACUCGCCCGA	0.1
8-171 (ssRNA, 2'-F pyrimidines) RNA: GGGAGGACGAUGCGGCGGGAGCCUUUUUAUGUCAUCAUGUCUGUGCAGACGACUCGCCCGA	0.12
8-114 (ssRNA, 2'-F pyrimidines) RNA: GGGAGGACGAUGCGGCGUGAGCCUAUUUAUGUCAUCAUGUCUGUGCAGACGACUCGCCCGA	0.071
11-222 (ssRNA, 2'-F pyrimidines) RNA: GGGAGGACGAUGCGGACAUAAGUCUUCUAUAGCUCGUCCUUUGUGCAGACGACUCGCCCGA	0.077
11-126 (ssRNA, 2'-F pyrimidines) RNA: GGGAGGACGAUGCGGGUUUGGGUCUUGAUCUCGUCUUGUCCCGUGCAGACGACUCGCCCGA	0.17
11-6 (ssRNA, 2'-F pyrimidines) RNA: GGGAGGACGAUGCGGGACGCGUUGAUUCAUCGUCUUAUCCUGCUGCAGACGACUCGCCCGA	0.24
